# Laboratory results reported in the DeepSol protein solubility set.
# Test: soluble on expression in E. coli; label from the status in PepcDB or PDB records
row,Sequence,soluble on expression in E. coli
1,MGSDKIHHHHHHMIHLSNITKQHGAQVLFRDASFQILPGTRTGLVGPNGAGKTTIFRIITGEEEVDAGEMTCAKKTTVGYFSQDVGEMAGRSALEEVMAGSAETVRLAAELKEMEAAMCEPQSDDEMAALLERYGAAQEEFEHRGGYDLDTRAQTVLTGLGIGPDRFHHPVESFSGGWKMRIALAKILTLKPDVLLLDEPTNHLDVESIIWLEEWLANDFDGALLMTSHDRDFMNRIVTRIIEVANRTVTTYGGNYDFYERERDIRREQLLASHKRQQEMLAKEEEFIARFAARASHAAQVQSRVKKLEKIERIEIPAEERMVRFEFSEPPRSGEDVVVMENLGKVWQTPDGGEKPVFGGVSGIIRRLNKIAVVGVNGAGKSTFLKVLAGQTEPTTGTVTIGANVELGYFSQHAMEVLDPKKTVFETVQEAMPLANIGVIRNLLAAFLFQGDTVDKRVENLSGGEKSRVVLATLLARPVNFLVLDEPTNHLDIRSREILLDALRNFAGTVVIVSHDRHFLRSLVDRVFEVDHGEMRVYEGDYSYYLRKSHELHGLP,not soluble
2,MGSDKIHHHHHHMIIELFGPPGAGKTTLLRGLCQGMAKHGINVKTVNGYRLIEYGSAQEDGPEVRHGIGRIGKKIATSGPVLLSTLPKDGVAARLLASIPLRSLTWSWRMKVDIALLCESWRQAQESEGYFIFEEGIIQALCALVVLARTPSIDVVRDCLAFLPRPDLLIQLDAPQETLRRRLMDRHAQQPLLEVLLFELGVDRGLRQADISRDIGKCLRQDGWPLIKVNGAEPHDLDKIITRILEEHETVPV,not soluble
3,MGSDKIHHHHHHMIIESRIEKGKPVVGMETTVFVHGLPRKEAIELFRRAKEISREKGFQLAVIGILKGKIVAGMSEEELEAMMREGADKVGTREIPIVVAEGKNAATTVSATIFLSRRIGIEVVVTGGTGGVHPGRVDVSQDLTEMSSSRAVLVSSGIKSILDVEATFEMLETLEIPLVGFRTNEFPLFFSRKSGRRVPRIENVEEVLKIYESMKEMELEKTLMVLNPVPEEYEIPHDEIERLLEKIELEVEGKEVTPFLLKKLVEMTNGRTLKANLALLEENVKLAGEIAVKLKRS,not soluble
4,MGSDKIHHHHHHMIINRSCLKEFAEKVHFLPSSLTKSDLLTDPFRLHQENELGIYYSPHNEFINRDASLVIAGITPGFSQMKTAYETAAESLLQGGTLEQMAVDTKIAAGFSGSMRHNLITMLDLCGLPQAFGIQSAAKLFGELRHMLHTTSVIKYPVFIQQKNYTGYKPAITHSPILSTYAFGHFPAELNHVTGPALLIPLGKAAETVCETLIRQHSLQNLICLNGFPHPSGANGHRLKQFSKNKEQLERQIRSFAALVDFAIEKRK,not soluble
5,MGSDKIHHHHHHMIISASRRTDIPAFYSQWFFNRIKEGYVLVPNPFNPKMISKVSLHPAVIDCIVFWTKNPAPMIDKLDHLQDYKYYFQFTLNPYGEKLENNLPSVNKRIDIFKRLSDKIGKEKVIWRYDPILTNEEYDVSFHKEAFAQIAYGLKDHTEKCMLGFIDHYQHIRTAVGQFNIQPLRKEEIEEIAVSFRNTINEYPAIQLDTCTSKVDLRHLGIPAGLCIDKELIERITGYPLLAKKDKNQRNVCNCIESIDIGTYESCLNGCIYCYAIKGNYNSVEYNTKKHDRNSPLLIGHPAEDDVVKEREMKSLRNNQYSLF,not soluble
6,MGSDKIHHHHHHMIITTALANEIVARAMAIIHHNVNVIDHHGQIIASGERHRIGEQHEVAREVIRTGKRICINNAAEAARFHNVHPGINHPIIYDDRVVMVVGISGDPAAISRYAELAVLTAELLVRQAIEMRETNWRQRLRDTLFCQYLEQGATPAGQEALHRLLELGFDFDTPRVPIVVTVQVEQHQLSDILSTLLREFSQLSGVSDVILLGSHEILILNALSEAQETLLRGIEFVLSNQISHYHIGIGVQADSAPDIREAIRFARSVIEVGSKVQPQRQIYYFREMAMLCLFRVLEDSYMVNFFINNVRQLLEHDSGEVLLDTLSSFIANNAEPGKTSLLLGIHRNTLTYRLQQIKKHIQLDPMVFTDLTQLAVSVHCYRRLNPRQSEWIDSLS,not soluble
7,MGSDKIHHHHHHMIKNAVKKIIDMEWFARMMEVLDHRSDNRMTELGMLSQAFEFIKINEVCGDYLEFGLWRGKTFGYAHRMKHRYRRQDMKLWGFDSFQGLPDTGAHPDNIWYKGQFACSRPEFESILKSRGIRSCEYELVEGFYRESLNDATRRRLAGRKAAIVYIDCDLYDSTVEVLDFIQPYLVNGSIVCFDDFYNYKADPEQGEQKALSDFLRKESGICFIPYMAYAPLGKSFICRRT,not soluble
8,MGSDKIHHHHHHMIKNQWYVVLSSRELKKGQLIGVTRFGEKLAFWRDSNGKVHCISDICCHRGASISHGKVLSNGERVMCPFHGFEYDSQGRVRTIPANGRNTPVPENFRVKSYPTYELADFIWIWYGDREPEKPPKYFDDITDELVYTEFKEVWNVHYSRAIENQLDPIHLPFVHYNTIGRGNRTVVDGPIVEWKDDEMFYFYVFNRIDDGTPARKPEEMDPKRKSKVYLEFKFPNIWQNHISEKIRVTAAFTPIDDDHTMIYLRFYVGLTGIKFLDKLIAVLGKPFNKIVLHQDKRVVETQIPKRSELRMGENLIPGDAPILEYRKKREALKSMQQNNRVK,not soluble
9,MGSDKIHHHHHHMIKVEDKSRCCGCEACVSSCPLQCIELVKDKEGFMYPQVDTARCIDCGKCEKACPELVEAKGSGGVTVYAAVNPDKEARLASSSGGIFTLLAESVLAENGVVFGARFDKDWNVIHDYTETKEGLEAFRGSKYVQSRTGETFKQAEQFLKEGRKVLFSGTPCQIMGLKRYLHKEYDNLLAVDFVCHGVPSPLVWRKYIEETLVRQDEKIQFRPTLNHLFLDEMPLIEGISFRNKCLGWKKYSFALILSKVTTAGEKNTVSLSRIFYDNAYMKAFLANLSLRPACYRCPAKSGKSGSDITLGDFWGIEKIAPELDDDRGCSLLIINNPKVRDELRKKGCLLAEFPISEILPYNLSTAYSVSMPNNRKFFWFMFDKAGFHKALMLATSTTFPIRALRKLFRLI,not soluble
10,MGSDKIHHHHHHMINLFLYCRAGYEKDCAAEIQQRAAELNVGGFVKTNRNDGYVIFQCFQVGDADLLAEQIELDSLIFTRQMFAANELLKDLPEGDRVTPIVDALAKVHRAGELRVETPDTNEAKELSTFCRKLTVPLRQALKRSGALLEKENPKRPIIHVCFVGPGTAYVGYSLSHNSSPYFMGIPRLKMASDAPSRSTLKLDEAFIHFIPKSEQEQRLRSGMNSVDLGACPGGWTYQLVRRGMFVAAVDNGPMAQNLMDTGQVRHYQADGFRFEPPKKNIYWLVCDMVEKPSRVAELMEAWAINGWFKEAIFNLKLPMKSRYKEVSTILATMQEVLRENGIDDFHLACKHLYHDRDEVTVHLWLKPSVGFNFG,not soluble
11,MGSDKIHHHHHHMINSGNGTDYESMRFDRRGQAEAFDAIGDRYDEAFPHKEGQVSVGEWLIGSLPPRSRVLDLGCGTGMPTARQLTDAGFDVVGVDLSGGMVELARAYVPGATFHQLDVADLRPGGSRDLGRFDAVAAFFSLLMLPRPEIPLALLTVRHLLVPGGLFALAMVEADVDDFSIPFVGHTIRVSGYLREDLHTVIETAGFEIVKEFSYTYAPSVADVPPEEQVFLCCRRRG,not soluble
12,MGSDKIHHHHHHMINSHQTQPLLRLENIEKSYGSHRILNKVSFCLYPGEITALIGDNGAGKSTLVQIISGYIQADKGNIYWQEQPLCYSNQYNAPFEMRRLGIQIVHQQLALIDELSIWRNFFLGNEINKKIGPFKFLNIRLMQHIASQSLQSFGLVCLPNIDLPVKKLSGGERQMLVVCRAKYFNAKLLILDEPTSALSPAQADKVLQIIKNIAQAGIAIVFITHNPAHIQNTAHKVIKLSCGTIEIMELTNTLIKG,not soluble
13,MGSDKIHHHHHHMIQSYPVERSRTIQTRLVLPPDTNHLGTIFGGKVLAYIDEIAALTAMKHANSAVVTASIDSVDFKSSATVGDALELEGFVTHTGRTSMEVYVRVHSNNLLTGERTLTTESFLTMVAVDESGKPKPVPQVEPQTEEEKRLYETAPARKENRKKRAALR,soluble
